# Experimental data published in publication doi:10.1101/2024.12.02.626349.
# Target: endogenous UBR4 tagged with FLAG at the UBR4 locus (human (endogenous in HEK293T)) (UniProt Q5T4S7)
# Assay: cryo-EM structure
# Chain of endogenous UBR4 tagged with FLAG at the UBR4 locus (Q5T4S7 whole entry): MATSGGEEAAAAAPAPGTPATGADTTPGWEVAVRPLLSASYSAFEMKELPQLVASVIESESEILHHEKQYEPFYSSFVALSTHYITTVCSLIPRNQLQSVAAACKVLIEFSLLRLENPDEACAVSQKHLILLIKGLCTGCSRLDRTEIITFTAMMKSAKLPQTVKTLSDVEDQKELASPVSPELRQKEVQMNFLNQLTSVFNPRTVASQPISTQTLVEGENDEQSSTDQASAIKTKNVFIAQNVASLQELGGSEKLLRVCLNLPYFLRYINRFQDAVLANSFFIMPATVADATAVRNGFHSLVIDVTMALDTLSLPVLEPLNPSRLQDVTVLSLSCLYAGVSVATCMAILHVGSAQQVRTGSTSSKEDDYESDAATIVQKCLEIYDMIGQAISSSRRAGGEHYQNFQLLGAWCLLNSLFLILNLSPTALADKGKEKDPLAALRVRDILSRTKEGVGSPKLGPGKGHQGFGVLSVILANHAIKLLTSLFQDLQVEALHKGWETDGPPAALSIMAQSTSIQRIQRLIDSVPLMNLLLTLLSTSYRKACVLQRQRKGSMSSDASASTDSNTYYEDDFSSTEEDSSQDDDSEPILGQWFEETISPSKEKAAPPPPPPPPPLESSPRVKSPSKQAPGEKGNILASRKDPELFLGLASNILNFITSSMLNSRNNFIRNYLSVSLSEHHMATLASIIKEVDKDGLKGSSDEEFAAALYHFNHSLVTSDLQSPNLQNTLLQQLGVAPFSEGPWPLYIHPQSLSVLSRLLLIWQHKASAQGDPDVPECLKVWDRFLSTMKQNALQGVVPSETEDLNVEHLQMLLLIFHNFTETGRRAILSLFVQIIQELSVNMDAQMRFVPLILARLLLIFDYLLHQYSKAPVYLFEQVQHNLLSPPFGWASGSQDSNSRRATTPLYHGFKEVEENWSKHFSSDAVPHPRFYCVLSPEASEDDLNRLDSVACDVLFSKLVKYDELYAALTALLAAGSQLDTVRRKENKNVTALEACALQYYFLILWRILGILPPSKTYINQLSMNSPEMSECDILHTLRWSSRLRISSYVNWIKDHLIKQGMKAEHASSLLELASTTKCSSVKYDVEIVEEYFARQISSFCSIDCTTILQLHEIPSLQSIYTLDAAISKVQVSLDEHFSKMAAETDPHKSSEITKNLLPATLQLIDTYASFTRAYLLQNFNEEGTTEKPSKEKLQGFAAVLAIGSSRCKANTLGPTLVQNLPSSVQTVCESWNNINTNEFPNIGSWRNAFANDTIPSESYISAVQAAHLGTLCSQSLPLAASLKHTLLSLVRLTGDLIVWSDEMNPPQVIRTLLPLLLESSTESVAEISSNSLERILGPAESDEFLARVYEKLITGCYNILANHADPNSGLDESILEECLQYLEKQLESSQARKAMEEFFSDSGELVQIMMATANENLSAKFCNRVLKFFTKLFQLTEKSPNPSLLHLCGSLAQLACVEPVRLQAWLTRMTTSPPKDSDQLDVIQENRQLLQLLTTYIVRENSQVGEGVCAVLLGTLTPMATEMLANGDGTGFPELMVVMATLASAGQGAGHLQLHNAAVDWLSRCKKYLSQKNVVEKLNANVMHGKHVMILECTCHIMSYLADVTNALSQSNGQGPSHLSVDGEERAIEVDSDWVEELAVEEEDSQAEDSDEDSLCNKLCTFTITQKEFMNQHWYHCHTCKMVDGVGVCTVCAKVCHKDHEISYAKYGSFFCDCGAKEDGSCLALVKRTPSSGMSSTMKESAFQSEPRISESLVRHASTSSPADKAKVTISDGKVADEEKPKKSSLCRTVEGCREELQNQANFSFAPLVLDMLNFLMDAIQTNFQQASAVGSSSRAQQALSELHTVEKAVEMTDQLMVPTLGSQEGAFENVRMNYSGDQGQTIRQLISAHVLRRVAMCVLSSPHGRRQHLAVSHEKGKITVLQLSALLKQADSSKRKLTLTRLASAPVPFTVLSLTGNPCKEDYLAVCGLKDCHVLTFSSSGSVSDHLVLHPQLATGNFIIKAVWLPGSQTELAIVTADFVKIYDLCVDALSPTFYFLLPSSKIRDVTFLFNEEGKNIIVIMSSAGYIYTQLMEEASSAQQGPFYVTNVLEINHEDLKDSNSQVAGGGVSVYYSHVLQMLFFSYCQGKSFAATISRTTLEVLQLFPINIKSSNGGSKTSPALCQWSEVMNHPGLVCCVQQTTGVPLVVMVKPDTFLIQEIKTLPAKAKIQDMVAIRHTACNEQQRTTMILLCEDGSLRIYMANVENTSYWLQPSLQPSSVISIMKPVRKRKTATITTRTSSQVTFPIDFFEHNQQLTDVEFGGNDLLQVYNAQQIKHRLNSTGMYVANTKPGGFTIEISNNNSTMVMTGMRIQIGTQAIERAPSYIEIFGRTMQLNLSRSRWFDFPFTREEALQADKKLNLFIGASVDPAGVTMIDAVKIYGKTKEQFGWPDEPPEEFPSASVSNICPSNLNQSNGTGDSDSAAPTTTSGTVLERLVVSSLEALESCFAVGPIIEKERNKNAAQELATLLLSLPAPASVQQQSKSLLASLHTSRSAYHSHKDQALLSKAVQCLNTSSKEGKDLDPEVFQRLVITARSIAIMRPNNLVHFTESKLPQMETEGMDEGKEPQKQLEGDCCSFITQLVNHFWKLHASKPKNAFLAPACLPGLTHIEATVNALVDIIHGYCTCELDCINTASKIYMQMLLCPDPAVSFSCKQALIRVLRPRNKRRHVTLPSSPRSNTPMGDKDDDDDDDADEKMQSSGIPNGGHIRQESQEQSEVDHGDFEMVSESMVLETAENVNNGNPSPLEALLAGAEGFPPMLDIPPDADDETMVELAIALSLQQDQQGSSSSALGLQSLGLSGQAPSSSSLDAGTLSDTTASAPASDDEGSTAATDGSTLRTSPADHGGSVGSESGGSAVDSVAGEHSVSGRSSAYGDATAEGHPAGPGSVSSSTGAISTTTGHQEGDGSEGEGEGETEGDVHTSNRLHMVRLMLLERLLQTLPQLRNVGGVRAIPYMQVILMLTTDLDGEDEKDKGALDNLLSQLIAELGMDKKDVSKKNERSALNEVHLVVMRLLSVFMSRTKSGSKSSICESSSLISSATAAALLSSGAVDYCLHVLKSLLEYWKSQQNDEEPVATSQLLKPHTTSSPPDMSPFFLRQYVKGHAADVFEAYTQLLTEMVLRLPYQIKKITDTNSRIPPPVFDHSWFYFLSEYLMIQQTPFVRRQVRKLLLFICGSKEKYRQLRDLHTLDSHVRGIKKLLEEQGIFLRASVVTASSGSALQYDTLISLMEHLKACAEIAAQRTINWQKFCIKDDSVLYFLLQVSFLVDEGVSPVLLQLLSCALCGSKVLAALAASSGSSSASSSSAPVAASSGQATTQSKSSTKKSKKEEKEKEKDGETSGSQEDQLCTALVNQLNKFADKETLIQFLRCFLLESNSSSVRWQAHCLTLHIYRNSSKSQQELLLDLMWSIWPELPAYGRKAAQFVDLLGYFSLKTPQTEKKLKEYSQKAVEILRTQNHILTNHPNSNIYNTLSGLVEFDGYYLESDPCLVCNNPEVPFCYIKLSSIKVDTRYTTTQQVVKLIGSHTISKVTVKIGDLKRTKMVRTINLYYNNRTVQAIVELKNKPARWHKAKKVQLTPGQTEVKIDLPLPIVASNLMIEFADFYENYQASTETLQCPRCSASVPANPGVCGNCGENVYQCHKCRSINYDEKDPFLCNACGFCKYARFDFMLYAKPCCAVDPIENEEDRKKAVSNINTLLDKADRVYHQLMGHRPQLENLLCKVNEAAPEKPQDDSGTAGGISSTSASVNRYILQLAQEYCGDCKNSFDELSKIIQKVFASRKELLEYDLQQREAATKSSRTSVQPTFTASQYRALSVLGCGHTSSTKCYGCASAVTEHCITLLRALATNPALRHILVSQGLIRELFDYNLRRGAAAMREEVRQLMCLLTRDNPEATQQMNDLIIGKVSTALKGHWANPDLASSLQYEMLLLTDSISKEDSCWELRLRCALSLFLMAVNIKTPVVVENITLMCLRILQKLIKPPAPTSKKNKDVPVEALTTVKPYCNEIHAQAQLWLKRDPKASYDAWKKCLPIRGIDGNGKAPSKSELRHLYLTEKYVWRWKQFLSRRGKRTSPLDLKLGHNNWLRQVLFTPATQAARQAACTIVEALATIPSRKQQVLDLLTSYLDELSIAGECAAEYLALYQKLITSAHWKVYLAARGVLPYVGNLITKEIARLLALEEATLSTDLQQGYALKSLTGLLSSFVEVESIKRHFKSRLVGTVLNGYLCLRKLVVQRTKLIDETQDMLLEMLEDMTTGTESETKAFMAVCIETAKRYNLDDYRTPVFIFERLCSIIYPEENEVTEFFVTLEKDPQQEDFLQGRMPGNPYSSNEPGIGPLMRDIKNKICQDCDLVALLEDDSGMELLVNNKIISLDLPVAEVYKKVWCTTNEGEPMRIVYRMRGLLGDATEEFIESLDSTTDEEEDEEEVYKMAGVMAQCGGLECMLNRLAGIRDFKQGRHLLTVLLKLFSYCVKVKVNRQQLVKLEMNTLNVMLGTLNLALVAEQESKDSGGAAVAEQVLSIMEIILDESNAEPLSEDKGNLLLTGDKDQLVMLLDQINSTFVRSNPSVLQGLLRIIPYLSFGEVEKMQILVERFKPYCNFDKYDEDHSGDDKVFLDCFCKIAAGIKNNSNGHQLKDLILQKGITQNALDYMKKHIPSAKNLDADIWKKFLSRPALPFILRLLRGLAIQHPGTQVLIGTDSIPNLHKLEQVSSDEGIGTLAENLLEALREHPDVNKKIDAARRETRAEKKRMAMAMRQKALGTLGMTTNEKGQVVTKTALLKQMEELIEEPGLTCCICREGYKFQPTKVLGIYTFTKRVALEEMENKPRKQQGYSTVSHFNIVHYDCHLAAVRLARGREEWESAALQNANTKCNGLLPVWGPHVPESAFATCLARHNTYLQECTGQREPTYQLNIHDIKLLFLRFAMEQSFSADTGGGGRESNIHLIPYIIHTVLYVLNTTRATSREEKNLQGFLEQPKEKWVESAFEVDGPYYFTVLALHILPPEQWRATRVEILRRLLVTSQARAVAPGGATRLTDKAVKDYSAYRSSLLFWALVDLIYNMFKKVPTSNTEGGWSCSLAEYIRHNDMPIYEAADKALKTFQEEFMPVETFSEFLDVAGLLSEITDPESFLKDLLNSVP
substance,measurement,value
endogenous UBR4 tagged with FLAG at the UBR4 locus (from UniProt Q5T4S7-1 1-5183) (natural protein),stoichiometry N,2
